{
  "source": "paper PMC4011751",
  "about": "“Recombinant Expression and Characterization of the Cytoplasmic Rice β-Glucosidase Os1BGlu4” (PLoS ONE, 2014)",
  "molecules": {"B1": {"name": "rOs1BGlu4 (Oryza sativa Japonica Group) (protein)", "chain": "MGSTGRDAEVTRGDFPDGFVFGVATSAYQIEGARREGGKGDNIWDVFTENKERILDGSSGEVAVDHYHRYKEDIELMASLGFRAYRFSISWPRIFPDGLGKNVNEQGVAFYNDLINFMIEKGIEPYATLYHWDLPHNLQQTVGGWLSDKIVEYFALYAEACFANFGDRVKHWITINEPLQTAVNGYGIGHFAPGGCEGETARCYLAAHYQILAHAAAVDVYRRKFKAVQGGEVGLVVDCEWAEPFSEKTEDQVAAERRLDFQLGWYLDPIYFGDYPESMRQRLGDDLPTFSEKDKEFIRNKIDFVGINHYTSRFIAHHQDPEDIYFYRVQQVERIEKWNTGEKIGERAASEWLFIVPWGLRKLLNYAAKRYGNPVIYVTENGMDEEDDQSATLDQVLNDTTRVGYFKGYLASVAQAIKDGADVRGYFAWSFLDNFEWAMGYTKRFGIVYVDYKNGLSRHPKASARWFSRFLKGDDAENKADMN", "notes": "full-length ORF (483 aa, no signal peptide, about 55 kDa) in pET32a(+), E. coli Origami B(DE3); Trx-His6 tag removed with enterokinase"}},
  "key": {"rOs1BGlu4": {"target": "T1, rOs1BGlu4 (Oryza sativa, UniProt Q5N863)", "T1 construct": "gene BGLU4; full-length ORF (483 aa, no signal peptide, about 55 kDa) in pET32a(+), E. coli Origami B(DE3); Trx-His6 tag removed with enterokinase", "T1 sequence (Q5N863 1-483)": "B1 chain", "assay": "inhibition of pNPGlc hydrolysis, […] nm", "assay_type": "biochemical", "settings": "read-out: Relative activity remaining (%)"}, "purified protein [1]": {"substrate": "O=[N+]([O-])c1ccc(O[C@@H]2O[C@H](CO)[C@@H](O)[C@H](O)[C@@H]2O)cc1", "assay": "purified protein", "settings": "50 mM sodium phosphate pH 6.5, 30°C (standard assay)"}, "purified protein [2]": {"substrate": "O=[N+]([O-])c1ccc(O[C@@H]2O[C@H](CO)[C@@H](O)[C@H](O)[C@H]2O)cc1", "assay": "purified protein", "settings": "50 mM sodium phosphate pH 6.5, 30°C (standard assay)"}, "purified protein [3]": {"substrate": "O=[N+]([O-])c1ccc(O[C@@H]2O[C@H](CO)[C@H](O)[C@H](O)[C@H]2O)cc1", "assay": "purified protein", "settings": "50 mM sodium phosphate pH 6.5, 30°C (standard assay)"}, "purified protein [4]": {"substrate": "O=[N+]([O-])c1ccc(O[C@@H]2OC[C@H](O)[C@H](O)[C@H]2O)cc1", "assay": "purified protein", "assay_type": "biochemical, Oryza sativa", "settings": "50 mM sodium phosphate pH 6.5, 30°C (standard assay)"}, "purified protein [5]": {"substrate": "C[C@H]1O[C@@H](Oc2ccc([N+](=O)[O-])cc2)[C@H](O)[C@@H](O)[C@H]1O", "assay": "purified protein", "assay_type": "biochemical, Oryza sativa", "settings": "50 mM sodium phosphate pH 6.5, 30°C (standard assay)"}, "[6]": {"substrate": "O=[N+]([O-])c1ccc(O[C@@H]2O[C@H](CO)[C@@H](O[C@@H]3O[C@H](CO)[C@@H](O)[C@H](O)[C@H]3O)[C@H](O)[C@H]2O)cc1", "assay": "initial-rate hydrolysis, glucose release by peroxidase/glucose oxidase assay, nonlinear Michaelis-Menten fit", "assay_type": "biochemical, Oryza sativa", "settings": "50 mM sodium phosphate pH 6.5, 30°C (standard assay)"}},
  "data": [
    {"molecule": "OC1OC[C@H](O)[C@H](O)[C@H]1O", "note": "(stereo partly drawn) [L-Arabinose]", "values": [
      {"measurement": "remaining activity at 10000 µM", "setting": "rOs1BGlu4", "result": 61, "unit": "%"}
    ]},
    {"molecule": "O=C1O[C@H](CO)[C@@H](O)[C@H](O)[C@H]1O", "note": "[δ-glucono-lactone]", "values": [
      {"measurement": "remaining activity at 1000 µM", "setting": "rOs1BGlu4", "result": 14, "unit": "%"}
    ]},
    {"molecule": "OC1OC[C@@H](O)[C@H](O)[C@H]1O", "note": "(stereo partly drawn) [D-Xylose]", "values": [
      {"measurement": "remaining activity at 10000 µM", "setting": "rOs1BGlu4", "result": 85, "unit": "%"}
    ]},
    {"molecule": "OC[C@H]1OC(O)[C@H](O)[C@@H](O)[C@@H]1O", "note": "(stereo partly drawn) [D-Glucose]", "values": [
      {"measurement": "remaining activity at 10000 µM", "setting": "rOs1BGlu4", "result": 90, "unit": "%"}
    ]},
    {"molecule": "OC[C@H]1OC(O)[C@@H](O)[C@@H](O)[C@@H]1O", "note": "(stereo partly drawn) [D-Mannose]", "values": [
      {"measurement": "remaining activity at 10000 µM", "setting": "rOs1BGlu4", "result": 73, "unit": "%"}
    ]},
    {"molecule": "OC[C@H]1OC(O)[C@H](O)[C@@H](O)[C@H]1O", "note": "(stereo partly drawn) [D-Galactose]", "values": [
      {"measurement": "remaining activity at 10000 µM", "setting": "rOs1BGlu4", "result": 93, "unit": "%"}
    ]},
    {"molecule": "N[C@H]1C(O)O[C@H](CO)[C@@H](O)[C@@H]1O", "note": "(stereo partly drawn) [D-Glucosamine]", "values": [
      {"measurement": "remaining activity at 10000 µM", "setting": "rOs1BGlu4", "result": 84, "unit": "%"}
    ]},
    {"molecule": "B1", "values": [
      {"measurement": "Km", "setting": "purified protein [1]", "result": "2240 ± 30", "unit": "µM"},
      {"measurement": "kcat", "setting": "purified protein [1]", "result": 1.25, "unit": "s⁻¹"},
      {"measurement": "kcat/Km", "setting": "purified protein [1]", "result": 560, "unit": "M⁻¹ s⁻¹"},
      {"measurement": "Km", "setting": "purified protein [2]", "result": "710 ± 20", "unit": "µM"},
      {"measurement": "kcat", "setting": "purified protein [2]", "result": 12.8, "unit": "s⁻¹"},
      {"measurement": "kcat/Km", "setting": "purified protein [2]", "result": 17900, "unit": "M⁻¹ s⁻¹"},
      {"measurement": "Km", "setting": "purified protein [3]", "result": "7330 ± 320", "unit": "µM"},
      {"measurement": "kcat", "setting": "purified protein [3]", "result": 3.16, "unit": "s⁻¹"},
      {"measurement": "kcat/Km", "setting": "purified protein [3]", "result": 430, "unit": "M⁻¹ s⁻¹"},
      {"measurement": "Km", "setting": "purified protein [4]", "result": "380 ± 20", "unit": "µM"},
      {"measurement": "kcat", "setting": "purified protein [4]", "result": 0.52, "unit": "s⁻¹"},
      {"measurement": "kcat/Km", "setting": "purified protein [4]", "result": 1370, "unit": "M⁻¹ s⁻¹"},
      {"measurement": "Km", "setting": "purified protein [5]", "result": "710 ± 20", "unit": "µM"},
      {"measurement": "kcat", "setting": "purified protein [5]", "result": "6.61 ± 0.08", "unit": "s⁻¹"},
      {"measurement": "kcat/Km", "setting": "purified protein [5]", "result": 9340, "unit": "M⁻¹ s⁻¹"},
      {"measurement": "Km", "setting": "[6]", "result": "140 ± 10", "unit": "µM"},
      {"measurement": "kcat", "setting": "[6]", "result": "3.44 ± 0.18", "unit": "s⁻¹"},
      {"measurement": "kcat/Km", "setting": "[6]", "result": 24400, "unit": "M⁻¹ s⁻¹"}
    ]}
  ]
}
